Reference: patent US20240270846A1 (published 2024)

Target: T1, CD3 epsilon homodimer protein (UniProt P07766 23-126)
T1 construct: also called CD3 (CD3 epsilon)
Assay: SPR Biacore T200, CD3 epsilon homodimer immobilised on CM4, one-arm antibody as analyte, single-cycle kinetics; reference unaltered GLS3000 antibody;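 also: CD3 epsilon homodimer attached to the CM4 chip via amine coupling, measured at 25 °C with HBS-EP+ as running buffer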

T1 sequence (P07766 23-126): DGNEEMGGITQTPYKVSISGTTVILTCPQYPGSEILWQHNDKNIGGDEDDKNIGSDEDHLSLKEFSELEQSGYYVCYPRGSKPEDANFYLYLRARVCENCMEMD

B1: GLS3000 P95S one-amino acid altered one-arm antibody (CE115HA000-pE22Hh / Kn010G3 / GLS3000 P95S-kappa) (antibody, human IgG1, kappa, L234A L235A, N297A, name in Kabat numbering)
heavy: QVQLVESGGGVVQPGRSLRLSCAASGFTFSNAWMHWVRQAPGKGLEWVAQIKAKSNNYATYYAESVKGRFTISRDDSKNSLYLQMNSLKTEDTAVYYCRYVHYGAYYGVDAWGQGTTVTVSSASTKGPSVFPLAPSSKSTSGGTAALGCLVKDYFPEPVTVSWNSGALTSGVHTFPAVLQSSGLYSLSSVVTVPSSSLGTQTYICNVNHKPSNTKVDKKVEPKSCDKTHTCPPCPAPEAAGGPSVFLFPPKPKDTLMISRTPEVTCVVVDVSHEDPEVKFNWYVDGVEVHNAKTKPREEQYASTYRVVSVLTVLHQDWLNGKEYKCKVSNKALPAPIEKTISKAKGQPREPQVYTLPPSRCELTKNQVSLSCAVKGFYPSDIAVEWESNGQPENNYKTTPPVLDSDGSFFLVSKLTVDKSRWQQGNVFSCSVMHEALHNHYTQKSLSLSPDYKDDDDK
chain: EPKSSDKTHTCPPCPAPELLGGPSVFLFPPKPKDTLMISRTPEVTCVVVDVSHEDPEVKFNWYVDGVEVHNAKTKPREEQYNSTYRVVSVLTVLHQDWLNGKEYKCKVSNKALPAPIEKTISKAKGQPREPQVCTLPPSRDELTKNQVSLWCLVKGFYPSDIAVEWESNGQPENNYKTTPPVLDSDGSFFLYSKLTVDKSRWQQGNVFSCSVMHEALHNRYTQKSLSLSP
light: DIVMTQSPLSLPVTPGEPASISCRSSQSLVHSNRNTYLHWYQQKPGQAPRLLIYKVSNRFSGVPDRFSGSGSGTDFTLKISRVEAEDVGVYYCGQGTQVSYTFGQGTKLEIKRTVAAPSVFIFPPSDEQLKSGTASVVCLLNNFYPREAKVQWKVDNALQSGNSQESVTEQDSKDSTYSLSSTLTLSKADYEKHKVYACEVTHQGLSSPVTKSFNRGEC
notes: One-arm antibody; substitution position in Kabat numbering; also called L chain altered form, Kabat 95 P to S
dissociation constant KD(M) ratio of L chain altered form to GLS3000: 1.19 ratio

B2: GLS3000 Q90P one-amino acid altered one-arm antibody (CE115HA000-pE22Hh / Kn010G3 / GLS3000 Q90P-kappa) (antibody, human IgG1, kappa, L234A L235A, N297A, name in Kabat numbering)
heavy: QVQLVESGGGVVQPGRSLRLSCAASGFTFSNAWMHWVRQAPGKGLEWVAQIKAKSNNYATYYAESVKGRFTISRDDSKNSLYLQMNSLKTEDTAVYYCRYVHYGAYYGVDAWGQGTTVTVSSASTKGPSVFPLAPSSKSTSGGTAALGCLVKDYFPEPVTVSWNSGALTSGVHTFPAVLQSSGLYSLSSVVTVPSSSLGTQTYICNVNHKPSNTKVDKKVEPKSCDKTHTCPPCPAPEAAGGPSVFLFPPKPKDTLMISRTPEVTCVVVDVSHEDPEVKFNWYVDGVEVHNAKTKPREEQYASTYRVVSVLTVLHQDWLNGKEYKCKVSNKALPAPIEKTISKAKGQPREPQVYTLPPSRCELTKNQVSLSCAVKGFYPSDIAVEWESNGQPENNYKTTPPVLDSDGSFFLVSKLTVDKSRWQQGNVFSCSVMHEALHNHYTQKSLSLSPDYKDDDDK
chain: EPKSSDKTHTCPPCPAPELLGGPSVFLFPPKPKDTLMISRTPEVTCVVVDVSHEDPEVKFNWYVDGVEVHNAKTKPREEQYNSTYRVVSVLTVLHQDWLNGKEYKCKVSNKALPAPIEKTISKAKGQPREPQVCTLPPSRDELTKNQVSLWCLVKGFYPSDIAVEWESNGQPENNYKTTPPVLDSDGSFFLYSKLTVDKSRWQQGNVFSCSVMHEALHNRYTQKSLSLSP
light: DIVMTQSPLSLPVTPGEPASISCRSSQSLVHSNRNTYLHWYQQKPGQAPRLLIYKVSNRFSGVPDRFSGSGSGTDFTLKISRVEAEDVGVYYCGPGTQVPYTFGQGTKLEIKRTVAAPSVFIFPPSDEQLKSGTASVVCLLNNFYPREAKVQWKVDNALQSGNSQESVTEQDSKDSTYSLSSTLTLSKADYEKHKVYACEVTHQGLSSPVTKSFNRGEC
notes: One-arm antibody; substitution position in Kabat numbering; also called L chain altered form, Kabat 90 Q to P
dissociation constant KD(M) ratio of L chain altered form to GLS3000: 15.9 ratio
